Source: the DeepSol protein solubility set

Experiment: soluble on expression in E. coli; label from the status in PepcDB or PDB records

Sequence | soluble on expression in E. coli
AEALAAGQRRIAKGERDFKDRVGFLRGRARPASTLITRFIADHQGHREGPDGLRWGVESICTQLTELGVPIAPSTYYDHINREPSRRELRDGELKEHISRVHAANYGVYGARKVWLTLNREGIEVARCTVERLMTKLGLSGTTRGKARRTTIADPATARPADLVQRRFGPPAPNRLWVADLTYVSTWAGFAYVAFVTDAYARRILGWRVASTMATSMVLDAIEQAIWTRQQEGVLDLKDVIHHTDRGSQYTSIRFSERLAEAGIQPSVGAVGSSYDNALAETINGLYKTELIKPGKPWRSIEDVELATARWVDWFNHRRLYQYCGDVPPVELEAAYYAQRQRPAAG | soluble
MGSDKIHHHHHHMEQQIPFSYVIISPENATEKEGYMISTIDKCGFFFCQKGEVEVALNDKSYLISKGSVCIYMTGSLLRIQRISKDIKGIMLEVDLNYIIPIVNKIVNSENLLYLRENPCFSITEYQYNYLEQLIKALQQRMDIKAHDIPLQRQHLISELIKSWGQTLCYELLNVYFTNQPLKPLSQDKKDKIFQNFVITLFRYYQQERDVTFYASKQYLSSRYFSAVIKEKSGSTALQWIVQMVITEAKQLLENSDLTIKEIATKLNFPTQSFFGKYFKQYVGVSPKEYRNKQIRQLPF | not soluble
AHHHHHHGSILKMLESRGITLERMVETALELYIGEKRDAIKEKVRELMLHYLEDINVQALLMAALMLEEKFNVEGDPVNLVADELIGIDIAEYIGGKMALFNFFYYDTKKPGILRELPPFLDDAIGGFIAGCMTLLFHIPQKNSNGGNL | soluble
MRNNGALGLTSKSLKNDKIMNVRTKDRGEPSTVKFSPDGRLCAMQRTPTTADVVFLEKTETSLCLELTVNTKSKEPLLAVEWVTNNQLLLVNNHSAELLYINEDKKSSKLLKATNVNAAWAIYYAPSQLLLIANGQSCSYLQPFVVTHSQFTRMKGFEVDFGGSISKENFLEKDAAIATIYGRVYVLVFKYSNRNATVLDLYELPFDAATGPSFKHSLILGFNGGCGIHVIDNLVVVHHQASQKSLIFDIRVSSPSKSHSPLVVTTIESHPQHQPPPALYTNFWFTFLPDIVIDSSGGVMYSIRLKNEHAQLEIADKQTMLEYLARRSNEKKLFVTTLLACLKARALSLRQIRKVFAMLTGVTGKSKSSFFCNGNFKLRQMANLPICRRCSISANCRFAGNFQIRQISDLAEIFIFSKFSVLPETCNSGKLIICRFAGDEEVSLPESYVANIMLQYLRSLFDAEITPEAYLIEMVVETLAEAGEMSKLQQIVTYRVINDSKPLAFLLLSYEARCSTLFQSGVDILARNKASDEIVEVMLEKKQIVDAFRFIDVRNLNDALIPKVVEAANQHCVRQTRYAIKEHLTEKKAKASLYKSIGDELYTAEEVKGASEEQATCALFEI | not soluble
MAHHHHHHMRRQTRLFSRLAVEIPNSHWLPRRLLLVRHGESEANVDRSQYSRIPDWKIPLTERGRAQALDCGRRLRNIIKNEKLYIYYSPYVRTQQTLAEVRKSLEESQVQGEREDERLREQEIGNFQPLDKMDRTWDERSNFGRSYYRFPDGESSVDVGDRVSTFFDSLFRERLELYSLSAGDPEDEDGPLNVPGEDDQNVLIISHGLLIRLFIARWFRVPLEAFETMRNPPNCSIVVLERQESARMVMTDISKKLFGSDPLLEMMKFDGKDSTKRYRHMFFSDHSGSFTPAEGV | not soluble
SLENVMRSLGFGFACKKGLKPDSPNQDDFAALCCSAFRLFGVFDGHGPSGHDVSGYVHRMLFALLLTDESLNRNPQLALRNAFVAPSKLRKSALLQVVCLPLFRPQPFTNVGGYDEAKAVRFVLFFSGGELKRLECDIPYRVFLKGRLYPGLAMSRALGDAIASHAGVSCEPDLSTVELDRSCLFVIIASDGVWEFISNQEAVNIVNEAMGSERKVRAKAAAERLALEAFKRWVEEEGNVVDDVFPVSPGGSHALPLLTTDPFIAKMKFLTNILLVLSCVLVLAGTVQGQKME | not soluble
MGSDKIHHHHHHACTGSSQKEKPACVNTPVEPFTGLPVFDLQEQYPEKEIILQDIADVRYVVLETGDSSLVGIRPILMTDSFLVTVNKKSDVIFFDKSGKYLHSFNHTSMSGEEYGDIVSGYCIDEKAREIFIYDGLQSRIQVYGYGGAYRRTLKLPQNRMFASSIFEYDENFLFGEDYRLVDSQIGKYPVNKTPYYKISKKDGKLTSIPITVKERIRDGLSYTVGDGAFGYVSLLMSPVARFGSDILIADYSLDTAYVYRDDHLIPLTVRRNHTSENNIPILATVDVMTGRYLLWYTIVKDIDVKNNRVSDPVSYLYDRFTNEYCRVDLVNRDVVSATNIPAFQMRLSANYHVVPENYAIQYYPAEELIELNGQGKLKGELKEIASKLNDEDNPVLLIAKFKE | not soluble
MPRIAIPDDLTEILTVVEFPLPNAPEIKIEIERLLQATGNSLSGKVTDDLVRSCQGLSMERIRRVLAKAIATHGELQPEDVDLVLEEKRQTIRQTQILDFYPATEQISDIGGLDNLKDWLLRRGGSFSERARQYGLPHPRGLLLEHHHHHH | not soluble
MQTSDSIVIIPTYNERENIENIIRAVFGLEKTFHILIIEDGSPDGTAAIVKTLQQEFPDRLFMIERKGKLGLGTAYITGFKWALEHSYEYIFEMDADFSHNPNDLPRLYEACAVQGGDVAIGSRYVSGVNVVNWPMGRVLMSYFASKYVRIVTGLPIHDTTAGFKCYRRQVLETIDLDHIRFKGYAFQIEMKFTAYKCGFKIIEVPVIFINRELGTSKMNSSIFGEAVFGVIKLKVNSWFHTFPQKTKMNLEHHHHHH | not soluble
HMAQVFEECVSFINGLPRTINLPNELKLDLYKYYKQSTIGNCNIKEPSAHKYIDRKKYEAWKSVENLNREDAQKRYVDIVSEIFPYWQD | soluble
MNKTLIAAAVAGIVLLASNAQAQTVPEGYQLQQVLMMSRHNLRAPLANNGSVLEQSTPNKWPEWDVPGGQLTTKGGVLEVYMGHYMREWLAEQGMVKSGECPPPYTVYAYANSLQRTVATAQFFITGAFPGCDIPVHHQEKMGTMDPTFNPVITDDSAAFSEQAVAAMEKELSKLQLTDSYQLLEKIVNYKDSPACKEKQQCSLVDGKNTFSAKYQQEPGVSGPLKVGNSLVDAFTLQYYEGFPMDQVAWGEIKSDQQWKVLSKLKNGYQDSLFTSPEVARNVAKPLVSYIDKALVTDRTSAPKITVLVGHDSNIASLLTALDFKPYQLHDQNERTPIGGKIVFQRWHDSKANRDLMKIEYVYQSAEQLRNADALTLQAPAQRVTLELSGCPIDADGFCPMDKFDSVLNEAVK | soluble
MATSKILLYYAFTPLSDPKAVQLWQRELCESLNLRGRILISTHGINGTVGGDIDDCKAYIKKTREYPGFNRMQFKWSEGGAEDFPKLSVKVRDEIVAFGAPDELKVDENGVVGGGVHLKPQQVNELVEARGDEVVFFDGRNAMEAQIGKFKDAVVPDVETTHDFIAEIESGKYDDLKDKPVVTYCTGGIRCEILSSLMINRGFKEVYQIDGGIVRYGEQFGNKGLWEGSLYVFDKRMHMEFGEDYKEVGHCIHCDTPTNKFEHCLNEDDCRELVLMCPDCFANVETRHCKRERCAAIAADFAEQGIDPLVTSLEHHHHHH | soluble
MSGYDRALSIFSPDGHIFQVEYALEAVKRGTCAVGVKGKNCVVLGCERRSTLKLQDTRITPSKVSKIDSHVVLSFSGLNADSRILIEKARVEAQSHRLTLEDPVTVEYLTRYVAGVQQRYTQSGGVRPFGVSTLIAGFDPRDDEPKLYQTEPSGIYSSWSAQTIGRNSKTVREFLEKNYDRKEPPATVEECVKLTVRSLLEVVQTGAKNIEITVVKPDSDIVALSSEEINQYVTQIEQEKQEQQEQDKKKKSNH | soluble
MAHHHHHHSLRVVSGEFGGRPLKTLDGKITRPTSDKVRGAIFNMIGPYFNGGRVLDLFAGSGGLAIEAVSRGMSAAVLVEKNRKAQAIIQDNIIMTKAENRFTLLKMEAERAIDCLTGRFDLVFLDPPYAKETIVATIEALAAKNLLSEQVMVVCETDKTVLLPKEIATLGIWKEKIYGISKVTVYVNEG | soluble
MKRDARDAPKSITLGFEADCVTLPIDAILPLRALGKSAKSSRKYRQIAASIAQIGIVEPPVVVRNPDRSATWLLLDGHMRIEALKDAGGSEVECLVSTDDEAFTYNRQISRLAPIQEHKMIRKAIERGVPEEKIALALDLNMSSIRRKARLLDGICEEAVAILKDKPCTNAVFDALRKMRTMRQIEAAELLVNANNYSVAYVNAILAGTPQAQLVESSKPKKVKGITPDAMARMEQELARLQEGIASIQDTYGEDHLHLTVIKGYVGKLLGNARVVRYLAQNHPEFLGEFQTITEITPAEADAAE | not soluble
MDIAQDWNGIPVPANPGNGMTWQLQDNVSDSFNYTSSEGNRPTAFTSKWKPSYINGWTGPGSTIFNAPQAWTNGSQLAIQAQPAGNGKSYNGIITSKNKIQYPVYMEIKAKIMDQVLANAFWTLTDDETQEIDIMEGYGSDRGGTWFAQRMHLSHHTFIRNPFTDYQPMGDATWYYNGGTPWRSAYHRYGCYWKDPFTLEYYIDGVKVRTVTRAEIDPNNHLGGTGLNQATNIIIDCENQTDWRPAATQEELADDSKNIFWVDWIRVYKPVAVSGGGNNSLEHHHHHH | soluble
MAQVPPPMTQVVTSAPPPTAAATVVAGAVAGQPQAVIQQGPPPTNIGYPPNATYSMASLYIGDLHPDVSEAMLFEKFSMAGPVLSIRVCRDNTSRLSLGYAYVNFQQPADAERALDTMNFEVIHGRPMRIMWSQRDPAARRAGNGNIFIKNLDRVIDNKSVYDTFSLFGNILSCKVATDDEGNSKGYGFVHFETEHSAQTAIEKVNGMLLSDKKVYVGKFQPRAQRMKELGESGLKYTNVFVKNFGEHLDQEKLSAMFSKFGEITSAVVMTDAQGKPKGFGFVAFADQDAAGQAVEKLNDSILEGTDCKLSVCRAQKKSERSAELKRKYEALKQERVQRYQGVNLYVKNIEEDLNDDGLRDHFSSFGTITSAKVMVDENGRSKGFGFVCFEKPEEATAAVTDMNSKMIGAKPLYVALAQRKEDRRAQLASQYMQRLATLRMGQQASGVPAMTQLYQPGQQGYFVPNPMNAQGRPGFQPQSAQIRGPPGQRVFQNQMFMQYPFNQRQVYPQQQGRPPMRTNDGRPQYGMAPRPAGAPRVGGPGVQMGGAPIRQQGPAPRGAPQKPFYQGPPRQQQPQQHSQQPAQQPGQQGQGQSGIVIHGQETLTSHMLAQAAPQEQKQLLGERIYALIEKMFPNHKEAGKITGMMLEIDNAELIMMLQDAELFRSKVEEAFGVLTNAQSAAASTSAPTAKN | not soluble
MGSDKIHHHHHHAQETIPDVEVSTMDMWVKETRSVSEYLNMPVLHFKDEQVYSETLRQLKNMTENERFTYFQQLGFEGAYILWEQADRELDKIFDMESDDSHLIQEMINTYKDKYSDIFSFNTVDLFDVTPYFTFTDNDLSLLGNIKGYVVIGNSLRGPKYDYPTYDLDEVVSATRAAEPTPIEPGFKGFKDASLTIKNGKYKSTMTIGRIVNGNSFAVEFKTKKKQLFWKKSVKAGYSAMLTMKSSKFNYKNTVFCPYGKEVSILNLPIERVGNVFDAVVENFKSSRGDAKGNQSFHNIRVI | not soluble
MSALRHIAVIDIGKTNAKVALVDLATSSEVALRRMANAPVRQAPYPHHDVESLWTFILDSLAGLNCEQRIDAISITTHGATGALVDASGELVLPVLDYEFDGPNGLAADYDAIRPPFAETGTPRLPLGLNLGAQFFWQQKRFPAAFAHATAILMYPQYWALRLTGVAANEVTSLGCHTDLWNPWTAGFSSLVDRLDWRGLMAPVRPARNRLGPILPALAARTGLDARTPVFCGLHDSNASLLPHLLSDAPPFSVVSTGTWVVSMAVGGREIALDAARDTLVNVNALGDPLPSARFMGGREFSVLTEGQPETWSEDDIGAVLARKTLLLPSTQQGSGPFPHQAATWLDAESINDGQRFAAVSFYLALMTATCLDLIGADGPTTVEGPFARNQLFVGMLAASTGRAVVASEATTGTSIGAALLASDQVMAYGKGERIEPPTDRAWADYANAWRVAVEARGLEHHHHHH | not soluble
